These substances were tested against integrin α4β7 (human α4 and β7 subunits co-expressed on 293T cells) (human) (UniProt P13612).
Sequence of UniProt P13612 (P13612 34-1032, chain 1 of 2): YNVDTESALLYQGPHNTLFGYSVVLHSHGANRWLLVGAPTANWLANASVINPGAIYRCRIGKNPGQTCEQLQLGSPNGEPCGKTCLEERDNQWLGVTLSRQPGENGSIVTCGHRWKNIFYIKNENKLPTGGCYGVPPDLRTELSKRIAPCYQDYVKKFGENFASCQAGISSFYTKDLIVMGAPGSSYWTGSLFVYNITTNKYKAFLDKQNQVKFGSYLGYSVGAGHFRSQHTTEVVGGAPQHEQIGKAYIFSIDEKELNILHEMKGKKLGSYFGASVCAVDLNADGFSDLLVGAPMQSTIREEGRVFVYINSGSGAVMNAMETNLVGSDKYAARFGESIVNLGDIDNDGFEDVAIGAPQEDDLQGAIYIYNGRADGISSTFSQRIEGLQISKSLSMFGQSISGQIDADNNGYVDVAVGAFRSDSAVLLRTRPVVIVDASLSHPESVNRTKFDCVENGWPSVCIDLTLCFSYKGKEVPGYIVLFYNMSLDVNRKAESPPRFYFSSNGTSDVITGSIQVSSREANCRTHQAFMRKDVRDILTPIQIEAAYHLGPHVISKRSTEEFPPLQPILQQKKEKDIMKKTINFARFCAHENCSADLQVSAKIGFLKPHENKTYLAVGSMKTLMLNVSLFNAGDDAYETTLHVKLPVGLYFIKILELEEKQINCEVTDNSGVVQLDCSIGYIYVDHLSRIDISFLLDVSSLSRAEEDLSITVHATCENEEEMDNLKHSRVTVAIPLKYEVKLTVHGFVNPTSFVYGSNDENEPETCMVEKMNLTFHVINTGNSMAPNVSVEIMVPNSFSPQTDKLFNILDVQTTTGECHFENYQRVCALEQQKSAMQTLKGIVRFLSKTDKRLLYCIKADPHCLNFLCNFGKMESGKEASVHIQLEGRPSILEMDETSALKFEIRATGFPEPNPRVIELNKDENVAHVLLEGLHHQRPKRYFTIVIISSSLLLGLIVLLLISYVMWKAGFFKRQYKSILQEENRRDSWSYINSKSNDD
Sequence of UniProt P13612 (P26010 20-798, chain 2 of 2, further chain): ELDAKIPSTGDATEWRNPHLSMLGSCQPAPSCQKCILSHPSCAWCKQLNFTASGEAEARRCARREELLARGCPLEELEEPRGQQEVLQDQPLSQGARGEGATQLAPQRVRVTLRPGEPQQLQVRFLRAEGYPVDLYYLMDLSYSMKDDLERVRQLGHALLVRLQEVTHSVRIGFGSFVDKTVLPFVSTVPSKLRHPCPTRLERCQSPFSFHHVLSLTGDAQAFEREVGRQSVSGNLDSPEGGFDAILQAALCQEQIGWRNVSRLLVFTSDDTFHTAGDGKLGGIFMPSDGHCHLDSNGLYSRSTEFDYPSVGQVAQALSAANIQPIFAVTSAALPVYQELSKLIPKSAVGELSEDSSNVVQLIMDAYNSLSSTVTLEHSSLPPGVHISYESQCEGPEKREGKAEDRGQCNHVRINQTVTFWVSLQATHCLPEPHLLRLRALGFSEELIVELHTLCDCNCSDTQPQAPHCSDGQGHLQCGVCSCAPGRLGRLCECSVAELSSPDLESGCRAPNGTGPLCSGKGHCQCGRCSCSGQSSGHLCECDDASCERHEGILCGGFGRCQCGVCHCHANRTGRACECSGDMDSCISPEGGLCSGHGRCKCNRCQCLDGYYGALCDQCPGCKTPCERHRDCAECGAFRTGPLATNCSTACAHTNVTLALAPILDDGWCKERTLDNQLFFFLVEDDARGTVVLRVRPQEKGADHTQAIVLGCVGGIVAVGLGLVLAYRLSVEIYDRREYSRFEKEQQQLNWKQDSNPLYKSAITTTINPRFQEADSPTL

Substance	α4β7 dependence for replication (Act-1 mAb inhibition of p24 in ATRA-treated CD4+ T cells) [%]
HIV-1 subtype C CAP88 transmitted/founder (T/F) envelope glycoprotein on infectious envelope clone virus (natural protein)	> 50
HIV-1 subtype C CAP200 transmitted/founder (T/F) envelope glycoprotein (SDV motif) on infectious envelope clone virus (natural protein)	> 50
HIV-1 subtype C CAP206 transmitted/founder (T/F) envelope glycoprotein on infectious envelope clone virus (natural protein)	> 50
HIV-1 subtype C CAP225 transmitted/founder (T/F) envelope glycoprotein (SDI motif) on infectious envelope clone virus (natural protein)	> 50

Source: publication PMC4479312
